{
  "source": "patent US20230212239A1",
  "about": "“INHIBITORS OF CBL AUTOINHIBITION AND RELATED METHODS” (THE HOSPITAL FOR SICK CHILDREN, priority 2020, published 2023)",
  "molecules": {"B1": {"name": "pSLAP2: tyrosine phosphorylated SLAP2 expressed in TKB1 cells (protein, UniProt Q9H6Q3 2-261, looked up)", "Src-like-adapter 2": "GSLPSRRKSLPSPSLSSSVQGQGPVTMEAERSKATAVALGSFPAGGPAELSLRLGEPLTIVSEDGDWWTVLSEVSGREYNIPSVHVAKVSHGWLYEGLSREKAEELLLLPGNPGGAFLIRESQTRRGSYSLSVRLSRPASWDRIRHYRIHCLDNGWLYISPRLTFPSLQALVDHYSELADDICCLLKEPCVLQRAGPLPGKDIPLPVTVQRTPLNWKELDSSLLFSEAATGEESLLSEGLRESLSFYISLNDEAVSLDDA", "modifications": "tyrosine phosphorylated", "notes": "tyrosine phosphorylated SLAP2 expressed in TKB1 cells"}},
  "molecular_target": "T1, CBL G306E (Homo sapiens, UniProt P22681, G306E)",
  "T1 construct": "Residues 25-357 and 2-436 of CBL were cloned in frame into pGEX4T-1; GST (N, cleaved yes); made in house; host or cells: E. coli BL-21",
  "T1 sequence (P22681 2-436 G306E)": "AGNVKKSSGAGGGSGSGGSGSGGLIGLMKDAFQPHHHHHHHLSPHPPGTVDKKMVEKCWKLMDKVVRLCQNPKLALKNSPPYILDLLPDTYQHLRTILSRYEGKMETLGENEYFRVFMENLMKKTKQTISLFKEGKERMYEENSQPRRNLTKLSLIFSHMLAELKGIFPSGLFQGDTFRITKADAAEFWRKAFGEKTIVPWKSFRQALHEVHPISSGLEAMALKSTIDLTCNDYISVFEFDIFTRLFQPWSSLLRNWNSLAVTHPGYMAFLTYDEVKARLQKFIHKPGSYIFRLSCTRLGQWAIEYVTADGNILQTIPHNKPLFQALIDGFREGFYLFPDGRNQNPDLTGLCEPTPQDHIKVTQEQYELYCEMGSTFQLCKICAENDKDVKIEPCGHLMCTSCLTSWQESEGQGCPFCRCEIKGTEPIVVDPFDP",
  "experiment": "In vitro ubiquitination assays with CBL mutant G306E",
  "format": "biochemical",
  "details": "CBL mutant that abolishes phospho-tyrosine binding",
  "experimental": "Thus, we tested whether the ability of SLAP2 to promote CBL ubiquitination activity is influenced by canonical TKBD-phospho-tyrosine interactions.\nIn vitro ubiquitination reactions were prepared with 20 pmol of CBL or pCBL and 60 pmol of hSLAP2 or phosphorylated hSLAP2 (pSLAP2) for both WT and mutants. Reagents were thawed and reactions prepared on ice. […]\nUbiquitination reactions were set up as above (25 µL total volume) in triplicate and diluted with reaction buffer after completion (1:40 for pCBL, 1:15 for all other reactions). […] Wells were washed four times with PBS-T and 25 µL of prepared Immobilon Western Chemiluminescent HRP Substrate (Millipore #P90719) added to each well immediately prior to the plate being read on a Synergy Neo2 Plate Reader (BioTek Instruments). […] Standard deviation of the reaction averages was calculated and used as a measure of error. Each reaction set was analyzed at least twice with fresh protein purifications.",
  "data": [
    {"molecule": "B1", "values": [
      {"measurement": "CBL G306E ubiquitination activity", "result": "stimulated CBL G306E ubiquitination activity"}
    ]}
  ]
}
